Measured values as given in the supplement of paper PMC11780869.

Tested on: Bacillus subtilis
Assay: cleaved RNA product abundance (RNA/gDNA barcode ratio) relative to median wild-type variant (ratio to wild type); higher = more accumulation of the downstream cleavage product
Conditions: cleavage site: cggR-gapA (positions -7 to +36 mutated)
Description: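 MPRA in B. subtilis. Mutagenized RNase Y cleavage-site regions (9% mutation rate) were inserted into a barcoded reporter mRNA (truncated aprE or tetM). Cells were grown in LB at 37°C to OD600 0.3. The cleaved RNA isoform was gel-purified and its barcodes counted; the RNA:gDNA barcode ratio was normalised to the median wild-type variant, and the median over barcodes is reported per variant. The printed sequence is the variable window only; the reporter flanks are not printed.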

[1] = experiment (reporter, strain, medium): exp 2b: truncated aprE reporter, strain BJT200
[2] = experiment (reporter, strain, medium): exp 4a: truncated aprE reporter, strain BJT201 with 2% xylose (RNase J1 expressed)

ACAGACGAAGGAGCCGCAAAGAACTTATTAAGGCATGAATAATCCCTCAATATAAATATCTCTCACTTATTTAAA
cleaved RNA product abundance [1]: 0.114 | cleaved RNA product abundance [2]: 0.099

ACAGACGAAGGAGCCGCAAAGAACTTATTAAGGGAAGAATAATCCCTCAATATAAATATCTCTCACTTATTTAAA
cleaved RNA product abundance [2]: 0.235

ACAGACGAAGGAGCCGCAAAGAACTTATTAAGGGACGAATAATCCCTCAATATAAATATCTCTCACTTATTTAAA
cleaved RNA product abundance [1]: 0.375 | cleaved RNA product abundance [2]: 0.389

ACAGACGAAGGAGCCGCAAAGAACTTATTAAGGGAGGAATAATCCCTCAATATAAATATCTCTCACTTATTTAAA
cleaved RNA product abundance [2]: 0.315

ACAGACGAAGGAGCCGCAAAGAACTTATTAAGGGATAAATAATCCCTCAATATAAATATCTCTCACTTATTTAAA
cleaved RNA product abundance [1]: 0.556 | cleaved RNA product abundance [2]: 0.477

ACAGACGAAGGAGCCGCAAAGAACTTATTAAGGGATCAATAATCCCTCAATATAAATATCTCTCACTTATTTAAA
cleaved RNA product abundance [1]: 0.282 | cleaved RNA product abundance [2]: 0.27

ACAGACGAAGGAGCCGCAAAGAACTTATTAAGGGATGAAAAATCCCTCAATATAAATATCTCTCACTTATTTAAA
cleaved RNA product abundance [2]: 0.521

ACAGACGAAGGAGCCGCAAAGAACTTATTAAGGGATGAACAATCCCTCAATATAAATATCTCTCACTTATTTAAA
cleaved RNA product abundance [2]: 0.344

ACAGACGAAGGAGCCGCAAAGAACTTATTAAGGGATGAATAAACCCTCAATATAAATATCTCTCACTTATTTAAA
cleaved RNA product abundance [1]: 0.224 | cleaved RNA product abundance [2]: 0.265

ACAGACGAAGGAGCCGCAAAGAACTTATTAAGGGATGAATAACCCCTCAATATAAATATCTCTCACTTATTTAAA
cleaved RNA product abundance [1]: 0.235

ACAGACGAAGGAGCCGCAAAGAACTTATTAAGGGATGAATAATACCTCAATATAAATATCTCTCACTTATTTAAA
cleaved RNA product abundance [1]: 0.0995 | cleaved RNA product abundance [2]: 0.165

ACAGACGAAGGAGCCGCAAAGAACTTATTAAGGGATGAATAATCACTCAATATAAATATCTCTCACTTATTTAAA
cleaved RNA product abundance [1]: 0.102 | cleaved RNA product abundance [2]: 0.152

ACAGACGAAGGAGCCGCAAAGAACTTATTAAGGGATGAATAATCCATCAATATAAATATCTCTCACTTATTTAAA
cleaved RNA product abundance [1]: 0.15 | cleaved RNA product abundance [2]: 0.209

ACAGACGAAGGAGCCGCAAAGAACTTATTAAGGGATGAATAATCCCACAATATAAATATCTCTCACTTATTTAAA
cleaved RNA product abundance [1]: 0.207 | cleaved RNA product abundance [2]: 0.292

ACAGACGAAGGAGCCGCAAAGAACTTATTAAGGGATGAATAATCCCCCAATATAAATATCTCTCACTTATTTAAA
cleaved RNA product abundance [2]: 0.25

ACAGACGAAGGAGCCGCAAAGAACTTATTAAGGGATGAATAATCCCTAAATATAAATATCTCTCACTTATTTAAA
cleaved RNA product abundance [1]: 0.258 | cleaved RNA product abundance [2]: 0.454

ACAGACGAAGGAGCCGCAAAGAACTTATTAAGGGATGAATAATCCCTCAAAATAAATATCTCTCACTTATTTAAA
cleaved RNA product abundance [2]: 0.208

ACAGACGAAGGAGCCGCAAAGAACTTATTAAGGGATGAATAATCCCTCAACATAAATATCTCTCACTTATTTAAA
cleaved RNA product abundance [2]: 0.227

ACAGACGAAGGAGCCGCAAAGAACTTATTAAGGGATGAATAATCCCTCAAGATAAATATCTCTCACTTATTTAAA
cleaved RNA product abundance [1]: 0.165 | cleaved RNA product abundance [2]: 0.185

ACAGACGAAGGAGCCGCAAAGAACTTATTAAGGGATGAATAATCCCTCAATATAAACATCTCTCACTTATTTAAA
cleaved RNA product abundance [2]: 0.348

ACAGACGAAGGAGCCGCAAAGAACTTATTAAGGGATGAATAATCCCTCAATATAAATAACTCTCACTTATTTAAA
cleaved RNA product abundance [1]: 0.444 | cleaved RNA product abundance [2]: 0.566

ACAGACGAAGGAGCCGCAAAGAACTTATTAAGGGATGAATAATCCCTCAATATAAATATCTCTCACTTATTTAAA
cleaved RNA product abundance [1]: 0.448 | cleaved RNA product abundance [2]: 0.509 | cleaved RNA product abundance (experiment (reporter, strain, medium): exp 6: tetM reporter, strain 168): 0.575

ACAGACGAAGGAGCCGCAAAGAACTTATTAAGGGATGAATAATCCCTCAATATAAATATTTCTCACTTATTTAAA
cleaved RNA product abundance [2]: 0.307

ACAGACGAAGGAGCCGCAAAGAACTTATTAAGGGATGAATAATCCCTCAATATATATATCTCTCACTTATTTAAA
cleaved RNA product abundance [2]: 0.454

ACAGACGAAGGAGCCGCAAAGAACTTATTAAGGGATGAATAATCCCTCAGTATAAATATCTCTCACTTATTTAAA
cleaved RNA product abundance [1]: 0.128 | cleaved RNA product abundance [2]: 0.309
